Assay results published in the supplement of paper PMC10899765.

Experiments:
Settings in all cases: 20 nM; 72 h
MCF10A [1] = test: one-nucleolus phenotype percent effect (relative to siNT 0% and siNOL11 100%); higher = more cells with one nucleolus (ribosome biogenesis inhibition)
Experimental: (§1)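 After 72 h, cells were fixed and stained with Hoechst and anti-fibrillarin, and nucleoli per nucleus were counted with CellProfiler. Values are plate-adjusted percent effect for the one-nucleolus and 5+ nucleoli phenotypes, normalised to siNT (0%) and to the positive controls siNOL11 or siKIF11 (100%), as the mean of biological triplicates. Percent viability is the nuclei count relative to siNT.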

MCF10A [2] = test: percent viability (nuclei count relative to siNT); higher = more viable cells
Experimental: as §1

MCF10A [3] = test: 5+ nucleoli phenotype percent effect (relative to siNT 0% and siKIF11 100%); higher = more cells with five or more nucleoli
Experimental: as §1

| Sequence | one-nucleolus phenotype percent effect (MCF10A [1]) [%] | percent viability (MCF10A [2]) [%] | 5+ nucleoli phenotype percent effect (MCF10A [3]) [%] |
| --- | --- | --- | --- |
| AGGUGGAUGCAAUGUGACCUCA [hsa-miR-3165] | 1.14 | 3.1 | -22.9 |
| AGGUGGGUAUGGAGGAGCCCU [hsa-miR-6769a-5p] | 39.6 | 14.3 | -16.7 |
| AGGUGGUCCGUGGCGCGUUCGC [hsa-miR-323a-5p] | 36.4 | 19.8 | -21.1 |
| AGGUGUGUCUGUAGAGUCC [hsa-miR-3650] | 45.8 | 19.8 | -24.7 |
| AGGUGUUAUCCUAUCCAUUUGC [hsa-miR-4694-5p] | 24.2 | 25.3 | -15.4 |
| AGGUUACCCGAGCAACUUUGCAU [hsa-miR-409-5p] | 42.3 | 21.8 | -20.6 |
| AGGUUCUGUGAUACACUCCGACU [hsa-miR-152-5p] | 65.8 | 22 | -38.1 |
| AGGUUGACAUACGUUUCCC [hsa-miR-563] | -18 | 70.5 | 46.2 |
| AGGUUGCCUGUGAGGUGUUCA [hsa-miR-656-5p] | 10.7 | 17.5 | -1.12 |
| AGGUUGGGAUCGGUUGCAAUGCU [hsa-miR-92a-1-5p] | 4.93 | 17.4 | -34 |
| AGGUUGUCCGUGGUGAGUUCGCA [hsa-miR-323b-5p] | -5.61 | 9.9 | 57.7 |
| AGGUUGUCCGUGUUGUCUUCUCU [hsa-miR-494-5p] | 3.91 | 22.3 | 18.5 |
| AGGUUGUCUGUGAUGAGUUCG [hsa-miR-410-5p] | -12.5 | 39.7 | 75.2 |
| AGUAGAGAGGAAAAGUUAGGGUC [hsa-miR-6832-5p] | -10.8 | 64.7 | 20.4 |
| AGUAUGUUCUUCCAGGACAGAAC [hsa-miR-567] | 8.77 | 56.1 | 34.9 |
| AGUAUUCUGUACCAGGGAAGGU [hsa-miR-630] | -15.1 | 68.7 | 49.7 |
| AGUCAUUGGAGGGUUUGAGCAG [hsa-miR-616-3p] | 10.7 | 85.2 | -20 |
| AGUGAAUGAUGGGUUCUGACC [hsa-miR-1257] | 45.3 | 25.9 | -35.8 |
| AGUGCCUGAGGGAGUAAGAG [hsa-miR-550a-3-5p] | 3.47 | 79.3 | -17.5 |
| AGUGCCUGAGGGAGUAAGAGCCC [hsa-miR-550a-5p] | 7.21 | 47.1 | 12.6 |

| Sequence | one-nucleolus phenotype percent effect (MCF10A [1]) [%] | percent viability (MCF10A [2]) [%] | 5+ nucleoli phenotype percent effect (MCF10A [3]) [%] |
| --- | --- | --- | --- |
| AGUGCCUGCUAUGUGCCAGGCA [hsa-miR-1271-3p] | -6.99 | 39.3 | 4.16 |
| AGUGGACCGAGGAAGGAAGGA [hsa-miR-4800-5p] | 2.75 | 44.8 | -9.53 |
| AGUGGAUGAUGGAGACUCGGUAC [hsa-miR-3691-5p] | 34.9 | 13.1 | -12.7 |
| AGUGGCAAAGUCUUUCCAUAU [hsa-miR-3688-5p] | 16 | 31.6 | -15.4 |
| AGUGGCACAUGUUUGUUGUGAG [hsa-miR-891a-3p] | 35 | 32.1 | -11.2 |
| AGUGGGAGGACAGGAGGCAGGU [hsa-miR-6778-5p] | -2.52 | 26.7 | -9.05 |
| AGUGGGAGGCCAGGGCACGGCA [hsa-miR-1233-1-5p] | 24.3 | 26.5 | -38.8 |
| AGUGGGGAACCCUUCCAUGAGG [hsa-miR-491-5p] | 47.1 | 10.1 | -46.6 |
| AGUGGGGUGGGACCCAGCUGUU [hsa-miR-6742-5p] | 43.2 | 21.8 | -35.4 |
| AGUGGUUCUUAACAGUUCAACAGUU [hsa-miR-203a-5p] | -32.6 | 150 | 60.5 |
| AGUUAAUGAAUCCUGGAAAGU [hsa-miR-569] | 10.3 | 90.6 | -15.9 |
| AGUUAGGAUUAGGUCGUGGAA [hsa-miR-1258] | 6.84 | 37.3 | -19.1 |
| AGUUCUUCAGUGGCAAGCUUUA [hsa-miR-22-5p] | 3.93 | 75.4 | 24 |
| AGUUGCCAGGGCUGCCUUUGGU [hsa-miR-6501-5p] | 5.87 | 47.2 | -26.4 |
| AGUUGCCUUUUUGUUCCCAUGC [hsa-miR-4423-5p] | -22.1 | 44.9 | -0.303 |
| AGUUUGGGAUGGAGAGAGGAGA [hsa-miR-6740-5p] | -20.1 | 83.1 | 24.1 |
| AGUUUUGCAGGUUUGCAUUUCA [hsa-miR-19b-2-5p] | 21.2 | 96.7 | -10.8 |
| AGUUUUGCAUAGUUGCACUACA [hsa-miR-19a-5p] | -20 | 124 | 35.3 |
| AUAAAGCUAGAUAACCGAAAGU [hsa-miR-9-3p] | 48.4 | 44.1 | -46.1 |
| AUAACAUUGUAAAGCGCUUCUUUCG [hsa-miR-3143] | -38.3 | 68.7 | 49 |

| Sequence | one-nucleolus phenotype percent effect (MCF10A [1]) [%] | percent viability (MCF10A [2]) [%] | 5+ nucleoli phenotype percent effect (MCF10A [3]) [%] |
| --- | --- | --- | --- |
| AUAAGACGAACAAAAGGUUUGU [hsa-miR-208b] | 2.18 | 63 | 3.95 |
| AUAAGACGAGCAAAAAGCUUGU [hsa-miR-208a] | -6.61 | 100 | 14.9 |
| AUAAUACAACCUGCUAAGUGCU [hsa-miR-374c-5p] | 26.4 | 45.3 | -36.9 |
| AUAAUACAUGGUUAACCUCUUU [hsa-miR-655] | 4.84 | 118 | -21.2 |
| AUACACAUACACGCAACACACAU [hsa-miR-466] | -17.2 | 38.7 | -1.51 |
| AUACAUGUCAGAUUGUAUGCC [hsa-miR-4666a-5p] | -5.95 | 52.7 | 3.52 |
| AUACCCAUAGCUUAGCUCCCA [hsa-miR-5591-3p] | 47 | 16.2 | -19.5 |
| AUACCUCAUCUAGAAUGCUGUA [hsa-miR-4777-3p] | 0.874 | 51.3 | -19.6 |
| AUACUGUGAAUUUCACUGUCACA [hsa-miR-4693-5p] | 2.95 | 53.9 | -20.3 |
| AUAGCAAUUGCUCUUUUGGAA [hsa-miR-4766-3p] | 19.4 | 38.1 | -28.9 |
| AUAGCAGCAUAAGCCUGUCUC [hsa-miR-4524b-5p] | -0.0215 | 21 | -6.19 |
| AUAGCAGCAUGAACCUGUCUCA [hsa-miR-4524a-5p] | 21.6 | 24.9 | -12.6 |
| AUAGGACUCAUAUAGUGCCAG [hsa-miR-3117-3p] | -13.2 | 35.4 | 33 |
| AUAGGCACCAAAAAGCAACAA [hsa-miR-4423-3p] | 0.708 | 12.9 | -11.3 |
| AUAGUCCGAGUAACGUCGGGGC [hsa-miR-6723-5p] | 16.5 | 54 | -28.9 |
| AUAGUGGGAAGCUGGCAGAUUC [hsa-miR-4727-3p] | 52.3 | 16.6 | -30.8 |
| AUAGUGGUUGUGAAUUUACCUU [hsa-miR-4460] | 11.2 | 33.9 | -22.1 |
| AUAUAAUACAACCUGCUAAGUG [hsa-miR-374b-5p] | -13.3 | 103 | 35.9 |
| AUAUACAGGGGGAGACUCUCAU [hsa-miR-1185-2-3p] | 21.3 | 25.8 | -11.3 |
